Experimental data from the supplement of paper PMC5998384.

Legend:
HeLa Kyoto [1] = assay: solubility in G1/S (NP-40 vs SDS abundance) (log2 ratio); higher = more soluble; details: cell cycle stage: G1/S
HeLa Kyoto [2] = assay: melting temperature (median over replicates), in situ; higher = more thermally stable
HeLa Kyoto [3] = assay: solubility change mitosis vs G1/S (difference of NP-40 vs SDS log2 ratios) (log2 ratio difference); higher = more soluble in mitosis
HeLa Kyoto [4] = assay: thermal stability score vs G1/S (z-score of summed log2 fold changes over temperatures); higher = more thermally stable than in G1/S
[5] = cell cycle stage: early G1 (4.5 h after nocodazole release)
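Throughout, for melting temperature (median over replicates), in situ: HeLa Kyoto cells synchronized by double thymidine or nocodazole block, proteins quantified by TMT10plex mass spectrometry, three independent biological replicates.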
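Throughout, for solubility change mitosis vs G1/S (difference of NP-40 vs SDS log2 ratios): synchronized HeLa Kyoto cells (double thymidine block for G1/S, nocodazole release for mitosis), protein amounts in NP-40 versus SDS lysates quantified by mass spectrometry, three biological replicates.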
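Throughout, for solubility in G1/S (NP-40 vs SDS abundance): HeLa Kyoto cells arrested at G1/S by double thymidine block, proteins quantified by TMT10plex mass spectrometry in mild NP-40 versus SDS extracts, three biological replicates.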
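Throughout, for thermal stability score vs G1/S (z-score of summed log2 fold changes over temperatures): synchronized HeLa Kyoto cells, proteins quantified by TMT10plex mass spectrometry, three biological replicates, mitosis taken 0.5 h after nocodazole release, G1/S directly after double thymidine block.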

Substance | solubility in G1/S (log2) (HeLa Kyoto [1]) | melting temperature (HeLa Kyoto [2]; cell cycle stage: G1/S) [°C] | melting temperature (HeLa Kyoto [2]; cell cycle stage: mitosis) [°C] | solubility change mitosis (log2) (HeLa Kyoto [3]) | thermal stability score (HeLa Kyoto [4]; [5]) | thermal stability score (HeLa Kyoto [4]; cell cycle stage: mitosis)
MSRCAQAAEVAATVPGAGVGNVGLRPPMVPRQASFFPPPVPNPFVQQTQIGSARRVQIVLLGIILLPIRVLLVALILLLAWPFAAISTVCCPEKLTHPITGWRRKITQTALKFLGRAMFFSMGFIVAVKGKIASPLEAPVFVAAPHSTFFDGIACVVAGLPSMVSRNENAQVPLIGRLLRAVQPVLVSRVDPDSRKNTINEIIKRTTSGGEWPQILVFPEGTCTNRSCLITFKPGAFIPGVPVQPVLLRYPNKLDTVTWTWQGYTFIQLCMLTFCQLFTKVEVEFMPVQVPNDEEKNDPVLFANKVRNLMAEALGIPVTDHTYEDCRLMISAGQLTLPMEAGLVEFTKISRKLKLDWDGVRKHLDEYASIASSSKGGRIGIEEFAKYLKLPVSDVLRQLFALFDRNHDGSIDFREYVIGLAVLCNPSNTEEIIQVAFKLFDVDEDGYITEEEFSTILQASLGVPDLDVSGLFKEIAQGDSISYEEFKSFALKHPEYAKIFTTYLDLQTCHVFSLPKEVQTTPSTASNKVSPEKHEESTSDKKDD [LPCAT2] | -0.00721 | 51.3 | 52.5 | -0.289 | 1.39 | 1.37
MSTGGDFGNPLRKFKLVFLGEQSVGKTSLITRFMYDSFDNTYQATIGIDFLSKTMYLEDRTVRLQLWDTAGQERFRSLIPSYIRDSTVAVVVYDITNVNSFQQTTKWIDDVRTERGSDVIIMLVGNKTDLADKRQVSIEEGERKAKELNVMFIETSAKAGYNVKQLFRRVAAALPGMESTQDRSREDMIDIKLEKPQEQPVSEGGCSC [RAB6A] | -0.0491 | 56.5 | 57.1 | -0.0808 | -2.97 | -6.05
MAEPVSPLKHFVLAKKAITAIFDQLLEFVTEGSHFVEATYKNPELDRIATEDDLVEMQGYKDKLSIIGEVLSRRHMKVAFFGRTSSGKSSVINAMLWDKVLPSGIGHITNCFLSVEGTDGDKAYLMTEGSDEKKSVKTVNQLAHALHMDKDLKAGCLVRVFWPKAKCALLRDDLVLVDSPGTDVTTELDSWIDKFCLDADVFVLVANSESTLMNTEKHFFHKVNERLSKPNIFILNNRWDASASEPEYMEDVRRQHMERCLHFLVEELKVVNALEAQNRIFFVSAKEVLSARKQKAQGMPESGVALAEGFHARLQEFQNFEQIFEECISQSAVKTKFEQHTIRAKQILATVKNIMDSVNLAAEDKRHYSVEEREDQIDRLDFIRNQMNLLTLDVKKKIKEVTEEVANKVSCAMTDEICRLSVLVDEFCSEFHPNPDVLKIYKSELNKHIEDGMGRNLADRCTDEVNALVLQTQQEIIENLKPLLPAGIQDKLHTLIPCKKFDLSYNLNYHKLCSDFQEDIVFRFSLGWSSLVHRFLGPRNAQRVLLGLSEPIFQLPRSLASTPTAPTTPATPDNASQEELMITLVTGLASVTSRTSMGIIIVGGVIWKTIGWKLLSVSLTMYGALYLYERLSWTTHAKERAFKQQFVNYATEKLRMIVSSTSANCSHQVKQQIATTFARLCQQVDITQKQLEEEIARLPKEIDQLEKIQNNSKLLRNKAVQLENELENFTKQFLPSSNEES [MFN1] | -0.168 | 52 | 51.3 | -0.0897 | -0.212 | -0.832
TSR3 | 0.0751 | 54.3 | 54.3 | -0.12 | 0.927 | -0.253
MSSCSRVALVTGANRGIGLAIARELCRQFSGDVVLTARDVARGQAAVQQLQAEGLSPRFHQLDIDDLQSIRALRDFLRKEYGGLNVLVNNAAVAFKSDDPMPFDIKAEMTLKTNFFATRNMCNELLPIMKPHGRVVNISSLQCLRAFENCSEDLQERFHSETLTEGDLVDLMKKFVEDTKNEVHEREGWPNSPYGVSKLGVTVLSRILARRLDEKRKADRILVNACCPGPVKTDMDGKDSIRTVEEGAETPVYLALLPPDATEPQGQLVHDKVVQNW [CBR3] | 0.562 | 51.4 | 52.4 | -0.0459 | -0.991 | 0.085
MLRSVWNFLKRHKKKCIFLGTVLGGVYILGKYGQKKIREIQEREAAEYIAQARRQYHFESNQRTCNMTVLSMLPTLREALMQQLNSESLTALLKNRPSNKLEIWEDLKIISFTRSTVAVYSTCMLVVLLRVQLNIIGGYIYLDNAAVGKNGTTILAPPDVQQQYLSSIQHLLGDGLTELITVIKQAVQKVLGSVSLKHSLSLLDLEQKLKEIRNLVEQHKSSSWINKDGSKPLLCHYMMPDEETPLAVQACGLSPRDITTIKLLNETRDMLESPDFSTVLNTCLNRGFSRLLDNMAEFFRPTEQDLQHGNSMNSLSSVSLPLAKIIPIVNGQIHSVCSETPSHFVQDLLTMEQVKDFAANVYEAFSTPQQLEK [PEX3] | 0.0923 | 50 | 49 | -0.208 | 0.401 | 0.184
MTEGTCLRRRGGPYKTEPATDLGRWRLNCERGRQTWTYLQDERAGREQTGLEAYALGLDTKNYFKDLPKAHTAFEGALNGMTFYVGLQAEDGHWTGDYGGPLFLLPGLLITCHVARIPLPAGYREEIVRYLRSVQLPDGGWGLHIEDKSTVFGTALNYVSLRILGVGPDDPDLVRARNILHKKGGAVAIPSWGKFWLAVLNVYSWEGLNTLFPEMWLFPDWAPAHPSTLWCHCRQVYLPMSYCYAVRLSAAEDPLVQSLRQELYVEDFASIDWLAQRNNVAPDELYTPHSWLLRVVYALLNLYEHHHSAHLRQRAVQKLYEHIVADDRFTKSISIGPISKTINMLVRWYVDGPASTAFQEHVSRIPDYLWMGLDGMKMQGTNGSQIWDTAFAIQALLEAGGHHRPEFSSCLQKAHEFLRLSQVPDNPPDYQKYYRQMRKGGFSFSTLDCGWIVSDCTAEALKAVLLLQEKCPHVTEHIPRERLCDAVAVLLNMRNPDGGFATYETKRGGHLLELLNPSEVFGDIMIDYTYVECTSAVMQALKYFHKRFPEHRAAEIRETLTQGLEFCRRQQRADGSWEGSWGVCFTYGTWFGLEAFACMGQTYRDGTACAEVSRACDFLLSRQMADGGWGEDFESCEERRYLQSAQSQIHNTCWAMMGLMAVRHPDIEAQERGVRCLLEKQLPNGDWPQENIAGVFNKSCAISYTSYRNIFPIWALGRFSQLYPERALAGHP [LSS] | -0.253 | 52.7 | 52.6 | 0.0123 | 0.214 | 0.242
MSRLLWRKVAGATVGPGPVPAPGRWVSSSVPASDPSDGQRRRQQQQQQQQQQQQQPQQPQVLSSEGGQLRHNPLDIQMLSRGLHEQIFGQGGEMPGEAAVRRSVEHLQKHGLWGQPAVPLPDVELRLPPLYGDNLDQHFRLLAQKQSLPYLEAANLLLQAQLPPKPPAWAWAEGWTRYGPEGEAVPVAIPEERALVFDVEVCLAEGTCPTLAVAISPSAWYSWCSQRLVEERYSWTSQLSPADLIPLEVPTGASSPTQRDWQEQLVVGHNVSFDRAHIREQYLIQGSRMRFLDTMSMHMAISGLSSFQRSLWIAAKQGKHKVQPPTKQGQKSQRKARRGPAISSWDWLDISSVNSLAEVHRLYVGGPPLEKEPRELFVKGTMKDIRENFQDLMQYCAQDVWATHEVFQQQLPLFLERCPHPVTLAGMLEMGVSYLPVNQNWERYLAEAQGTYEELQREMKKSLMDLANDACQLLSGERYKEDPWLWDLEWDLQEFKQKKAKKVKKEPATASKLPIEGAGAPGDPMDQEDLGPCSEEEEFQQDVMARACLQKLKGTTELLPKRPQHLPGHPGWYRKLCPRLDDPAWTPGPSLLSLQMRVTPKLMALTWDGFPLHYSERHGWGYLVPGRRDNLAKLPTGTTLESAGVVCPYRAIESLYRKHCLEQGKQQLMPQEAGLAEEFLLTDNSAIWQTVEELDYLEVEAEAKMENLRAAVPGQPLALTARGGPKDTQPSYHHGNGPYNDVDIPGCWFFKLPHKDGNSCNVGSPFAKDFLPKMEDGTLQAGPGGASGPRALEINKMISFWRNAHKRISSQMVVWLPRSALPRAVIRHPDYDEEGLYGAILPQVVTAGTITRRAVEPTWLTASNARPDRVGSELKAMVQAPPGYTLVGADVDSQELWIAAVLGDAHFAGMHGCTAFGWMTLQGRKSRGTDLHSKTATTVGISREHAKIFNYGRIYGAGQPFAERLLMQFNHRLTQQEAAEKAQQMYAATKGLRWYRLSDEGEWLVRELNLPVDRTEGGWISLQDLRKVQRETARKSQWKKWEVVAERAWKGGTESEMFNKLESIATSDIPRTPVLGCCISRALEPSAVQEEFMTSRVNWVVQSSAVDYLHLMLVAMKWLFEEFAIDGRFCISIHDEVRYLVREEDRYRAALALQITNLLTRCMFAYKLGLNDLPQSVAFFSAVDIDRCLRKEVTMDCKTPSNPTGMERRYGIPQGEALDIYQIIELTKGSLEKRSQPGP [POLG] | 0.0107 | 50.3 | 50.6 | -0.0443 | 0.521 | 0.308
MLRWLIGGGREPQGLAEKSPLQTIGEEQTQNPYTELLVLKAHHDIVRFLVQLDDYRFASAGDDGIVVVWNAQTGEKLLELNGHTQKITAIITFPSLESCEEKNQLILTASADRTVIVWDGDTTRQVQRISCFQSTVKCLTVLQRLDVWLSGGNDLCVWNRKLDLLCKTSHLSDTGISALVEIPKNCVVAAVGKELIIFRLVAPTEGSLEWDILEVKRLLDHQDNILSLINVNDLSFVTGSHVGELIIWDALDWTMQAYERNFWDPSPQLDTQQEIKLCQKSNDISIHHFTCDEENVFAAVGRGLYVYSLQMKRVIACQKTAHDSNVLHVARLPNRQLISCSEDGSVRIWELREKQQLAAEPVPTGFFNMWGFGRVSKQASQPVKKQQENATSCSLELIGDLIGHSSSVEMFLYFEDHGLVTCSADHLIILWKNGERESGLRSLRLFQKLEENGDLYLAV [WDR41] | 0.0666 | 52.8 | 53.4 | -0.21 | -1.29 | -1.46
MAAGAGTAGPASGPGVVRDPAASQPRKRPGREGGEGARRSDTMAGGGGSSDGSGRAAGRRASRSSGRARRGRHEPGLGGPAERGAGEARLEEAVNRWVLKFYFHEALRAFRGSRYGDFRQIRDIMQALLVRPLGKEHTVSRLLRVMQCLSRIEEGENLDCSFDMEAELTPLESAINVLEMIKTEFTLTEAVVESSRKLVKEAAVIICIKNKEFEKASKILKKHMSKDPTTQKLRNDLLNIIREKNLAHPVIQNFSYETFQQKMLRFLESHLDDAEPYLLTMAKKALKSESAASSTGKEDKQPAPGPVEKPPREPARQLRNPPTTIGMMTLKAAFKTLSGAQDSEAAFAKLDQKDLVLPTQALPASPALKNKRPRKDENESSAPADGEGGSELQPKNKRMTISRLVLEEDSQSTEPSAGLNSSQEAASAPPSKPTVLNQPLPGEKNPKVPKGKWNSSNGVEEKETWVEEDELFQVQAAPDEDSTTNITKKQKWTVEESEWVKAGVQKYGEGNWAAISKNYPFVNRTAVMIKDRWRTMKRLGMN [TERF2] | 0.0628 | 48.9 | 50.3 | 0.0937 | 1.08 | 1.27
SMG1 | -0.17 | 50.3 | 50.2 | -0.102 | -0.61 | -0.143
MAAFAVEPQGPALGSEPMMLGSPTSPKPGVNAQFLPGFLMGDLPAPVTPQPRSISGPSVGVMEMRSPLLAGGSPPQPVVPAHKDKSGAPPVRSIYDDISSPGLGSTPLTSRRQPNISVMQSPLVGVTSTPGTGQSMFSPASIGQPRKTTLSPAQLDPFYTQGDSLTSEDHLDDSWVTVFGFPQASASYILLQFAQYGNILKHVMSNTGNWMHIRYQSKLQARKALSKDGRIFGESIMIGVKPCIDKSVMESSDRCALSSPSLAFTPPIKTLGTPTQPGSTPRISTMRPLATAYKASTSDYQVISDRQTPKKDESLVSKAMEYMFGW [NUP35] | 0.209 | 52.3 | 52 | -0.0493 | -2.22 | -0.679
MELSAVGERVFAAEALLKRRIRKGRMEYLVKWKGWSQKYSTWEPEENILDARLLAAFEEREREMELYGPKKRGPKPKTFLLKAQAKAKAKTYEFRSDSARGIRIPYPGRSPQDLASTSRAREGLRNMGLSPPASSTSTSSTCRAEAPRDRDRDRDRDRERDRERERERERERERERERERGTSRVDDKPSSPGDSSKKRGPKPRKELPDPSQRPLGEPSAGLGEYLKGRKLDDTPSGAGKFPAGHSVIQLARRQDSDLVQCGVTSPSSAEATGKLAVDTFPARVIKHRAAFLEAKGQGALDPNGTRVRHGSGPPSSGGGLYRDMGAQGGRPSLIARIPVARILGDPEEESWSPSLTNLEKVVVTDVTSNFLTVTIKESNTDQGFFKEKR [CBX8] | -0.615 | 46.1 | 49.5 | 0.612 | 2.83 | 5.27
